{
  "source": "paper PMC12357092",
  "about": "“Two stages of substrate discrimination dictate selectivity in the Escherichia coli MetNI-Q ABC transporter system” (The Journal of Biological Chemistry, 2025)",
  "molecules": {"B1": {"name": "E. coli MetQ N229A, secreted (non-lipidated), C-terminal 6x-histidine tag (natural protein, UniProt P28635 23-271, looked up)", "chain": "CGQDEKDPNHIKVGVIVGAEQQVAEVAQKVAKDKYGLDVELVTFNDYVLPNEALSKGDIDANAFQHKPYLDQQLKDRGYKLVAVGNTFVYPIAGYSKKIKSLDELQDGSQVAVPNDPTNLGRSLLLLQKVGLIKLKDGVGLLPTVLDVVENPKNLKIVELEAPQLPRSLDDAQIALAVINTTYASQIGLTPAKDGIFVEDKESPYVALIVTREDNKDAENVKKFVQAYQSDEVYEAANKVFNGGAVKGW", "modifications": "fluorescein 5-maleimide on the single native cysteine at position 23 (anisotropy experiments)", "notes": "secreted non-lipidated form isolated from the periplasmic extract; The protein is unlabelled in the ATPase assays; also called N229A MetQ; native N229A; source: E. coli BL21 (DE3) Gold, periplasmic extract, purified (HisTrap, Superdex 200); not shown: His6, C-terminal, kept"}, "B2": {"name": "E. coli MetQ substrate-binding protein, wild type, secreted (non-lipidated), C-terminal 6x-histidine tag (natural protein, UniProt P28635 23-271, looked up)", "chain": "B1 chain with A207N", "modifications": "fluorescein 5-maleimide on the single native cysteine at position 23 (anisotropy experiments)", "notes": "secreted non-lipidated form isolated from the periplasmic extract; Cys23 is present; WT(apo), WT(LM) and WT(DM) are the same protein without methionine, with 100 uM L-Met or with 100 uM D-Met; native WT co-purifies with L-Met; The protein is unlabelled in the ATPase assays; also called WT MetQ; WT(apo); source: E. coli BL21 (DE3) Gold, periplasmic extract, purified (HisTrap, Superdex 200); not …"}, "B3": {"name": "MetNI (Escherichia coli K-12) (protein)", "chain": "MIKLSNITKVFHQGTRTIQALNNVSLHVPAGQIYGVIGASGAGKSTLIRCVNLLERPTEGSVLVDGQELTTLSESELTKARRQIGMIFQHFNLLSSRTVFGNVALPLELDNTPKDEVKRRVTELLSLVGLGDKHDSYPSNLSGGQKQRVAIARALASNPKVLLCDEATSALDPATTRSILELLKDINRRLGLTILLITHEMDVVKRICDCVAVISNGELIEQDTVSEVFSHPKTPLAQKFIQSTLHLDIPEDYQERLQAEPFTDCVPMLRLEFTGQSVDAPLLSETARRFNVNNNIISAQMDYAGGVKFGIMLTEMHGTQQDTQAAIAWLQEHHVKVEVLGYV"}, "B4": {"name": "MetNI (Escherichia coli K-12; N295A) (protein)", "chain": "B3 chain with N295A"}},
  "key": {"MetQ (Escherichia coli) [1]": {"target": "MetQ (Escherichia coli) (UniProt P28635)", "settings": "cited from earlier work"}, "MetQ (Escherichia coli) [2]": {"target": "MetQ (Escherichia coli) (UniProt P28635)", "settings": "cited from earlier work", "remark": "listed apart in the source"}, "MetQ [3]": {"target": "T1, MetQ (Escherichia coli, UniProt P28635)", "T1 construct": "secreted, non-lipidated periplasmic MetQ, C-terminal 6xHis, from E. coli BL21(DE3) Gold", "T1 sequence (P28635 23-271)": "B1 chain with A207N", "assay": "isothermal titration calorimetry", "type": "binding"}, "MetNI [4]": {"target": "T2, MetNI (Escherichia coli, UniProt P30750)", "T2 construct": "gene metN; DDM-solubilized full MetNI transporter (MetN2MetI2), His-tag purified, prepared as previously described; with D-methionine transport system permease protein MetI", "assay": "ATPase inhibition, EnzChek phosphate assay", "type": "biochemical", "source_text": "ATPase inhibition, EnzChek phosphate assay on MetNI | we measured the inhibitory constants (Ki) for both L- and D-Met"}, "MetQ [5]": {"target": "T3, MetQ (Escherichia coli, UniProt P28635, N229A)", "T3 construct": "secreted, non-lipidated periplasmic MetQ, C-terminal 6xHis, from E. coli BL21(DE3) Gold", "T3 sequence (P28635 23-271 N229A)": "B1 chain", "assay": "isothermal titration calorimetry", "type": "binding"}, "MetNI [6]": {"target": "T4, MetNI (Escherichia coli, UniProt P30750, N295A)", "T4 construct": "gene metN; DDM-solubilized full MetNI transporter (MetN2MetI2), His-tag purified, prepared as previously described; with D-methionine transport system permease protein MetI", "T4 sequence (P30750 whole entry N295A, one chain of several)": "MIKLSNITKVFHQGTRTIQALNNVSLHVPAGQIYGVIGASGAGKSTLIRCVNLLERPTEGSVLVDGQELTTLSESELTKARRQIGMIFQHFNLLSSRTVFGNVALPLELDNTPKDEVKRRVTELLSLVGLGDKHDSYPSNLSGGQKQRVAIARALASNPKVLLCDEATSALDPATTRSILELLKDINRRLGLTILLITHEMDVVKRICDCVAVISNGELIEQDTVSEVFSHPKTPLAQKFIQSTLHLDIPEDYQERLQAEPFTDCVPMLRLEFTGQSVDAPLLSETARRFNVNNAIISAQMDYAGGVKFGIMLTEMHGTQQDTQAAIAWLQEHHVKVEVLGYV", "assay": "ATPase inhibition, EnzChek phosphate assay", "type": "biochemical"}, "MetNI-Q": {"target": "T5, MetNI-Q (Escherichia coli, UniProt P28635+P31547)", "T5 construct": "gene metQ", "T5 sequence (P28635 23-271)": "B1 chain with A207N", "T5 sequence (P31547 1-217)": "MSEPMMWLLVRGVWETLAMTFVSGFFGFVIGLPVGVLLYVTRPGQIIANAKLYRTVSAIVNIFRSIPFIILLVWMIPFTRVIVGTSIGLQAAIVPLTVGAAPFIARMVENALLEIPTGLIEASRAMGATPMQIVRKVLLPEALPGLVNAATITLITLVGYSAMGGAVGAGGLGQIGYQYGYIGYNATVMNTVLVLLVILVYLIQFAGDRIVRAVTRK", "T5 sequence (P30750 1-343 partner)": "B3 chain", "assay": "proteoliposome uptake of 3H-methionine", "type": "biochemical", "settings": "50 μM L-Met, 50 μM WT MetQ, ATP-regenerating system in lumen, 5 mM MgCl2, pH 7.5, 37 °C; labelled compound"}, "[7]": {"target": "T6, E. coli MetNI transporter, N295A mutant (E. coli, UniProt P30750 1-343; P31547 1-217, N295A)", "T6 sequence (looked up) 1": "B3 chain with N295A", "T6 sequence (looked up) 2": "T5 sequence (P31547 1-217)", "assay": "cell-based or functional assay"}, "[8]": {"target": "T7, E. coli MetNI transporter, E166Q/N295A double mutant, detergent-solubilized (E. coli, UniProt P30750 1-343; P31547 1-217, E166Q | N295A)", "T7 sequence 1": "B3 chain with E166Q, N295A", "T7 sequence 2": "T5 sequence (P31547 1-217)", "assay": "FP; unfolded-refolded N229A MetQ, ATP/EDTA"}, "[9]": {"target": "T8, E. coli MetNI transporter, E166Q/N295A double mutant, detergent-solubilized (E. coli, UniProt P30750 1-343; P31547 1-217, E166Q | N295A)", "T8 construct": "MetI, the transmembrane (permease) subunit of the E. coli methionine ABC importer MetNI; also called E166Q/N295A MetNI; source: purified, detergent-solubilized (DDM); copies: 2 + 2", "T8 sequence (looked up) 1": "B3 chain with E166Q, N295A", "T8 sequence (looked up) 2": "T5 sequence (P31547 1-217)", "assay": "fluorescence polarisation; 20 nM fluorescein-labelled MetQ held constant, detergent-solubilized E166Q/N295A MetNI 0-10 uM; ATP-bound state mimicked with 5 mM ATP and 10 mM EDTA; no methionine added (unfolded-refolded WT MetQ or native N229A); 57.5 mM Tris pH 7.5, 10 mM TAPS pH 8.5, 150 mM NaCl, 1.5 mM bME, 0.05% DDM; single-site binding model", "settings": "both partners purified"}, "[10]": {"target": "T8, E. coli MetNI transporter, E166Q/N295A …", "assay": "fluorescence polarisation; as a1 (5 mM ATP and 10 mM EDTA), unfolded-refolded WT MetQ with exogenous 100 uM D-Met", "settings": "both partners purified"}, "[11]": {"target": "T8, E. coli MetNI transporter, E166Q/N295A …", "assay": "fluorescence polarisation; as a1 (5 mM ATP and 10 mM EDTA), unfolded-refolded WT MetQ with exogenous 100 uM L-Met", "settings": "both partners purified"}, "[12]": {"target": "T8, E. coli MetNI transporter, E166Q/N295A …", "assay": "fluorescence polarisation; control: native WT MetQ (co-purifies with L-Met, not unfolded-refolded) with detergent-solubilized E166Q/N295A MetNI", "settings": "both partners purified"}, "purified protein": {"substrate": "Nc1ncnc2c1ncn2[C@@H]1O[C@H](COP(=O)(O)OP(=O)(O)OP(=O)(O)O)[C@@H](O)[C@H]1O", "assay": "purified protein", "settings": "500 nM MetNI in DDM, equimolar MgCl2 and ATP, 37 °C, no MetQ, no Met"}},
  "note": "Where a chain is given by its changes, count along the chain named. Names may count otherwise. Like-named read-outs stand apart in the source and are kept apart here.",
  "data": [
    {"molecule": "MetNI (from UniProt P30750)", "values": [
      {"measurement": "Kd", "setting": "MetQ (Escherichia coli) [1]", "value": 1.1, "unit": "µM"},
      {"measurement": "Kd", "setting": "MetQ (Escherichia coli) [2]", "value": 0.027, "unit": "µM"}
    ]},
    {"molecule": "CSCC[C@H](N)C(=O)O", "note": "[L-Met]", "values": [
      {"measurement": "Kd", "setting": "MetQ [3]", "value": "0.0066 ± 0.0006", "unit": "µM"},
      {"measurement": "Ki", "setting": "MetNI [4]", "value": "120 ± 20", "unit": "µM"},
      {"measurement": "Kd", "setting": "MetQ [5]", "value": "300 ± 70", "unit": "µM"},
      {"measurement": "Ki", "setting": "MetNI [6]", "value": "3300 ± 300", "unit": "µM"},
      {"measurement": "uptake rate", "setting": "MetNI-Q", "value": "L-Met was imported into proteoliposomes"}
    ]},
    {"molecule": "CSCC[C@@H](N)C(=O)O", "note": "[D-Met]", "values": [
      {"measurement": "Kd", "setting": "MetQ [3]", "value": "6.6 ± 0.6", "unit": "µM"},
      {"measurement": "Ki", "setting": "MetNI [4]", "value": "5400 ± 100", "unit": "µM"},
      {"measurement": "Kd", "setting": "MetQ [5]", "value": "110 ± 30", "unit": "µM"},
      {"measurement": "Ki", "setting": "MetNI [6]", "value": "2400 ± 400", "unit": "µM"}
    ]},
    {"molecule": "B1", "values": [
      {"measurement": "kcat of MetQ-stimulated ATPase activity of detergent-solubilized N295A MetNI, 5 mM MgATP, native N229A MetQ 0-50 μM", "setting": "[7]", "value": 4.45, "unit": "s⁻¹"},
      {"measurement": "Kd", "setting": "[8]", "value": 0.113, "unit": "µM"},
      {"measurement": "Kd", "setting": "[9]", "value": 0.3, "unit": "µM"}
    ]},
    {"molecule": "B2", "values": [
      {"measurement": "kcat of MetQ-stimulated ATPase activity of detergent-solubilized N295A MetNI, 5 mM MgATP, WT(DM) MetQ 0-50 μM with 100 μM D-Met", "setting": "[7]", "value": 1.83, "unit": "s⁻¹"},
      {"measurement": "kcat of MetQ-stimulated ATPase activity of detergent-solubilized N295A MetNI, 5 mM MgATP, WT(LM) MetQ 0-50 μM with 100 μM L-Met", "setting": "[7]", "value": 1, "unit": "s⁻¹"},
      {"measurement": "kcat of MetQ-stimulated ATPase activity of detergent-solubilized N295A MetNI, 5 mM MgATP, WT(apo) MetQ 0-50 μM", "setting": "[7]", "value": 4, "unit": "s⁻¹"},
      {"measurement": "Kd", "setting": "[10]", "value": 0.8, "unit": "µM"},
      {"measurement": "Kd", "setting": "[11]", "value": 5, "unit": "µM"},
      {"measurement": "Kd", "setting": "[12]", "value": "8 ± 2", "unit": "µM"},
      {"measurement": "Kd", "setting": "[9]", "value": 0.4, "unit": "µM"}
    ]},
    {"molecule": "B3", "values": [
      {"measurement": "Km", "setting": "purified protein", "value": "800 ± 100", "unit": "µM"},
      {"measurement": "kcat", "setting": "purified protein", "value": "0.4 ± 0.067", "unit": "s⁻¹"}
    ]},
    {"molecule": "B4", "values": [
      {"measurement": "Km", "setting": "purified protein", "value": "812 ± 4", "unit": "µM"},
      {"measurement": "kcat", "setting": "purified protein", "value": "0.4 ± 0.067", "unit": "s⁻¹"}
    ]}
  ]
}
